Measurements: the supplement of paper PMC10567573

B1: TRIM39 (parent)
chain: YPCVLATEGFTSGRHYWEVEVGDK
B2: KRT15 (parent)
chain: SNFHINVEESVDGQVVSSHKREI

Variants of: B1
Experiment: protein stability index of a GFP-peptide fusion (GPS, HEK-293T) (PSI 1-6); higher = more stable
Conditions: c terminus: a fixed tail appended
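Further: lentivirally expressed fusions sorted by FACS into six bins by GFP to DsRed ratio, PSI derived from sequencing read proportions per bin multiplied by bin number.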

Protein stability index: each site, then its substitutions
C3: Y 1.98; G 1.98; H 1.98; S 2; N 1.7; D 1.9; Q 1.9; E 3.41; K 1.48; V 2.01; M 1.91; F 1.86; W 1.97; A 2.05; R 2.99; L 2.09; I 2.41; T 1.81
Y1: E 3.65; S 3.49; H 3.55; F 1.59; D 3.45; V 2.8; T 3.78; R 3.52; A 3.11; Q 3.71; W 2.74; K 3.15; M 3.11; N 3.76; P 4.24; I 2.98; G 3.34; L 2.96; C 2.7
A6: H 1.99; Y 1.43; T 3; L 1.45; G 2.38; D 2.12; C 1.44; N 2.47; E 1.71; F 1.27; W 2.16; P 1.75; V 1.89; M 1.4; K 1.59; I 2.09; R 1.36; Q 2.47; S 1.44
L5: T 2.16; I 1.69; C 1.22; H 1.36; R 1.54; K 2.21; F 1.57; Y 2.3; N 2.58; D 2.17; W 2.18; G 1.87; A 1.87; V 1.74; Q 2.31; S 2.26; P 1.56; E 2.34; M 1.46
P2: F 1.78; V 2.4; I 1.1; S 1.52; D 2.92; R 1.86; E 2.67; G 2.58; N 2.21; Y 1.66; T 2.21; Q 2.05; L 2.35; M 1.76; K 1.99; C 1.94; A 1.84
E8: P 1.62; R 1.58; A 1.33; D 1.93; G 2.09; K 2.25; Y 1.35; F 2.06; M 2.25; N 1.85; H 1.93; V 2.14; S 1.25; T 2.01; I 2.16; L 1.89; Q 1.87
F10: W 1.85; H 1.86; I 2.15; E 2.77; L 1.86; T 2.49; Q 1.63; D 2.45; N 2.34; S 1.9; M 2.69; P 2.12; G 2.48; R 2.41; K 1.4; V 1.66; A 1.55
G9: A 2.49; T 2.03; D 2.01; K 1.8; C 1.57; M 1.66; P 2.21; E 2.2; F 2.97; S 1.81; H 1.6; R 2.38; W 1.96; Y 2.22; V 1.81; N 1.99; Q 2.04; I 1.05
V4: S 1.61; M 2.06; P 2.01; T 1.68; H 1.52; D 2.54; N 1.85; G 2.69; Y 2.41; K 1.79; E 2.88; C 2.03; I 1.85; F 2.18; Q 1.46; R 1.78; A 1.73; L 2.13; W 1.74
T7: E 2.16; N 2.45; G 1.77; S 1.57; K 2.46; H 1.59; D 1.74; L 1.98; P 1.75; C 1.84; I 1.63; F 2.32; A 2.27; Y 1.09; Q 1.56; V 1.79

Variants of: B2
Experiment: as above
Conditions: c terminus: native

Protein stability index of substitutions, site by site:
V16: L 2.37; E 2.85; D 2.86; P 2.18; A 2.19; F 2.63; T 2.99; Q 2.62; S 2.18; Y 2; G 2.82; H 1.2; C 2.25; N 2.46; K 2.2; M 2.23
K20: G 3.06; T 3.08; N 5.38; Y 2.18; E 1.49; V 2.4; Q 2.77; W 3.4; F 2.07; I 2.45; R 3.06; P 1.94; A 3.58; L 1.39; M 3.15; H 2.51; D 3.86; C 2.39
Q14: Y 1.72; T 2.12; S 1.94
R21: F 4.32; C 4.43; E 5.02; S 5.13; L 4.52; M 4.91; K 4.88; I 3.16; A 4.45; P 3.5; H 3.9; T 4.4; W 3.38; D 4.89; N 3.89; V 3.79; Y 4.83; G 4.9; Q 4.48
I23: N 4.98; F 4.74; H 4.13; G 3.55; K 5.16; P 3.83; S 3.79; Q 4.43; W 2.45; Y 4.55; T 4.32; D 4.89; R 3.09; C 4.94; V 4.83; A 4.14; E 2.44; M 2.52
V15: Y 2.12; Q 2.78; I 2.11; S 3.12; N 2.52; E 2.23; L 1.78; M 4.02; P 2.84; C 1.48; G 2.67; D 2.82; A 1.71; F 1.96; T 2.31; H 1.83
E22: Q 4.37; W 3.94; K 4.82; A 4.63; M 4.05; S 3.52; I 4.12; N 4.82; P 4.74; L 4.53; T 4.46; D 4.97; C 4.59; Y 4.1; F 4.19; G 5.28; H 4.64; R 2.87
S18: E 3.06; K 2.06; C 2.21; I 2.44; N 2.72; T 1.63; M 1; A 1.37; D 3.92; G 1.54; R 3.29; Y 3.37; Q 1.27; P 3.1
S17: M 1.29; H 2.17; D 1.8; N 1.91; P 1.43; T 2.5; G 2.73; Y 2.27; E 2.91; V 2.42; Q 1.68; W 4.29; I 1.12; F 2.65; K 1.82; R 1.7; A 2.37; L 2.06
H19: S 4.55; L 2.08; Y 3.48; K 2.95; E 4.9; M 2.39; F 1.33; C 2.22; V 3.51; D 5; Q 2.88; I 2.03; P 4.66; A 2.75; N 4.44
